Reference: patent publication US12624097B2, “Nucleic acids, vectors, and cells that encode anti-Sp17 antibodies and other Sp17 binding proteins” (Medicovestor, Inc., priority 2023, dated 2026)
“Also recorded” adds a separate entry of the source.

Experiments:
[1] = system: 33 normal human tissues; experiment: Immunohistochemistry on a normal tissue microarray (specificity); conditions: 33 normal tissues, 2-3 human donors per tissue
Experimental: The specificity of the chAB2 antibody for Sp17 was determined with immunohistochemistry on a normal tissue microarray, which consisted of 33 normal tissues obtained from 2-3 human donors per tissue. The normal tissues included brain, eye, adrenal gland, hypophyseal, thyroid, parathyroid, tonsil, thymus, spleen, heart, lung, larynx, esophagus, stomach, small intestine, colon, liver, pancreas, salivary gland, kidney, bone, skeletal, skin, peripheral nerve, mesothelial, breast, ovary, endometrium, cervix, testis, and prostate.

[2] = target: T1, Sp17 protein (Homo sapiens, UniProt Q15506); experiment: Western blot detection of Sp17 protein; format: binding
T1 sequence (Q15506 1-151): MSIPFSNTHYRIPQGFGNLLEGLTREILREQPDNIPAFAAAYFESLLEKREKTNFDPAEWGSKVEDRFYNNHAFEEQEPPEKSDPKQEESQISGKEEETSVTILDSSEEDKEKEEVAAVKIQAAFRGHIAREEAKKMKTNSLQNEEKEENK
Description: The nucleotide sequences encoding the VH and VL regions of Example 1 were cloned into a […] heavy chain gene and a mouse kappa light chain gene, respectively, and expressed in CHO-S cells to produce a mouse-human chimeric antibody, which was named chAB2. Successful generation of the antibody was confirmed by SDS-PAGE and western blotting using anti-mouse heavy and light chain antibodies and recombinant Sp17 protein (FIGS. 2 & 3).
The VH and VL nucleotide sequences of Example 1 were cloned into a human IgG4 heavy chain gene and a human kappa light chain gene, respectively. A Ser228Pro mutation was introduced in the heavy chain to reduce non-specific Fc receptor gamma binding. The resultant antibody was named SP17-AB2. Successful cloning was confirmed by sequence analysis. The amino acid sequences of the heavy chain and light chain are shown in Table 4, and the Ser228Pro mutation is underlined in SEQ ID NO: 11.

B1: chAB2: mouse-human chimeric anti-Sp17 monoclonal antibody; human VH/VL (SEQ ID NO: 3, 4) with mouse IgG2a heavy and mouse kappa light chain (antibody, V domains shown)
VH: QVQLQQSGAEVKKPGSSVKVSCKASGGTFSSYAISWVRQAPGQGLEWMGRIIPILGIANYAQKFQGRVTITADKSTSTAYMELSSLRSEDTAVYYCARPSEEVVAAYGAFDIWGQGTTVTVSS
VL: EIVLTQSPLSLPVRPGEPASISCRASQSLLRSDGFNYLDWYLQKPGQSPQLLVYLGSNRASGVPDRFSGSGSGTDFTLKISRVEAEDVGVYYCMQAVQTPYIFGQGTKLEIK
modifications: mouse IgG2a heavy and mouse kappa constant regions
- binding to normal tissues (cross-reactivity) [1]: bound to testis and did not bind to normal tissues; also recorded: lack detectable cross-reactivity
- binding to Sp17 protein by western blot [2]: Sp17 protein was detected
